Experimental data as given in publication PMC5479570.

biological target: CD4-IgG2 (UniProt P01730); assay: BLI

| Substance | Kd | koff | kon |
| --- | --- | --- | --- |
| HIV-1 clade B YU2 gp120 glycoprotein, ΔV1/V2 (from UniProt P35961 32-498) (natural protein) | 0.34 nM | 5.4e-05 s⁻¹ | 178000 M⁻¹ s⁻¹ |
| HIV-1 clade B YU2 gp120 glycoprotein, ΔV3 (from UniProt P35961 32-498) (natural protein) | 0.91 nM | 0.00015 s⁻¹ | 160000 M⁻¹ s⁻¹ |
| HIV-1 clade B YU2 gp120 extended core (Coree) (domain or fragment) | 0.12 nM | 5.9e-05 s⁻¹ | 474000 M⁻¹ s⁻¹ |
